Source: patent US20240392013A1 (STELEXIS THERAPEUTICS, published 2024)

T1: recombinant human IL1RAP protein, extracellular domain His-tagged (Sino Biological, Cat #10121-H08H) (human, UniProt Q9NPH3 21-367)
T1 construct: extracellular domain; Bought protein; The Octet analyte is printed as huIL1RAP-His (Sino Biological, lot MB08MA1301) without a catalogue number; also called huIL1RAP-His; hIL1RAP; not shown: His tag
T1 sequence (looked up): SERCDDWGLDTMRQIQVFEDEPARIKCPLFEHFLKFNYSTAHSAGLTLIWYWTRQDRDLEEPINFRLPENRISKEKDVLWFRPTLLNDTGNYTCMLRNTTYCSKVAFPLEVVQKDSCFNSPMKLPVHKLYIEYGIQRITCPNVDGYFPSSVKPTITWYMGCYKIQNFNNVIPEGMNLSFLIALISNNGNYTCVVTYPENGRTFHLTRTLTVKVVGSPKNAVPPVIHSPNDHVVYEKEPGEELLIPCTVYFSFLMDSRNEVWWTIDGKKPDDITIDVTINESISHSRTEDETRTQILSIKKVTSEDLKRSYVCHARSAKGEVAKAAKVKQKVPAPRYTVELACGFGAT

T2: cyIL1RAP-His (Lake Pharma) (cynomolgus monkey, UniProt A0A2K5X5J5 21-367)
T2 construct: Bought protein (Lake Pharma, lot 16205819371); also called cynomolgus IL1RAP; monkey IL1RAP; not shown: His tag
T2 sequence: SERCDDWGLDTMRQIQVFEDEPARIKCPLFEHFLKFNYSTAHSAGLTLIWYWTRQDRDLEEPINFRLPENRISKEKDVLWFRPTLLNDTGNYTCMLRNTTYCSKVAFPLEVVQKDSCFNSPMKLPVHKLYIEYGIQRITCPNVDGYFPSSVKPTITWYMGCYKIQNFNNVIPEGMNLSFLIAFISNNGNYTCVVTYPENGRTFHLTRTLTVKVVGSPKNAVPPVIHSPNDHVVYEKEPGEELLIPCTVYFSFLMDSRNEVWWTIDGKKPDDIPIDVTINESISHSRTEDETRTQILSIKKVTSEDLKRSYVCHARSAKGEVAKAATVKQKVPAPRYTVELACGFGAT

T3: IL1RAP on HEK-Blue IL1β / HEK-Blue IL33 reporter cells (UniProt Q9NPH3 21-570, limits assumed)
T3 sequence (looked up): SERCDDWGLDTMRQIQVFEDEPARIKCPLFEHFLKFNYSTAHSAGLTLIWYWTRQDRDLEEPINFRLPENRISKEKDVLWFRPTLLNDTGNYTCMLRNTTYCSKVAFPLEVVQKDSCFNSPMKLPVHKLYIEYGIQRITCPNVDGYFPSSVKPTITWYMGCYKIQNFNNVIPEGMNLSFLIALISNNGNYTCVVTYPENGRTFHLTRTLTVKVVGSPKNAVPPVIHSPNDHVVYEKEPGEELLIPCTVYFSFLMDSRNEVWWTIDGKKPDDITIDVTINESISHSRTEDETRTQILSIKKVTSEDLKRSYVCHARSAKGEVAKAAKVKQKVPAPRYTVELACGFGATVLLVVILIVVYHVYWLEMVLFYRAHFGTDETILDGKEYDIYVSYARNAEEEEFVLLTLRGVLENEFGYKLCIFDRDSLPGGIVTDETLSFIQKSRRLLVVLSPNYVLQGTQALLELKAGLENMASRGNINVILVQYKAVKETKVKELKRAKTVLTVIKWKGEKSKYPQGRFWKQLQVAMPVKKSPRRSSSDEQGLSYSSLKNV

T4: recombinant mouse IL1RAP protein (Sino Biological, Cat #52657-M08H) (mouse, UniProt Q61730 21-359)
T4 construct: Bought protein
T4 sequence (looked up): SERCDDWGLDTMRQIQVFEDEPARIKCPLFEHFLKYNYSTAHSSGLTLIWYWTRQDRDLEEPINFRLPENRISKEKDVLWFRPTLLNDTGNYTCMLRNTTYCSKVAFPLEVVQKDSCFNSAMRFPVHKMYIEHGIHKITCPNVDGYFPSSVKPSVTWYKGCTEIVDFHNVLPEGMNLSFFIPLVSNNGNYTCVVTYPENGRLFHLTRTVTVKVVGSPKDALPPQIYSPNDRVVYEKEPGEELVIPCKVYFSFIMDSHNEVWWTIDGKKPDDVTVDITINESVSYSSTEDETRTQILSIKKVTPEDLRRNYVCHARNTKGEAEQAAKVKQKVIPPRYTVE


What was measured:
[1] = target: T1, recombinant human IL1RAP protein, …; experiment: Octet BLI; mAb captured on anti-mouse IgG Fc sensor; huIL1RAP-His analyte
Description: (§1) Antibodies were diluted in kinetics buffer (0.1% BSA, 0.02% Tween-20 and 0.05% NaN₃ in PBS) and loaded onto 16 channel anti-mouse IgG Fc capture sensors (AMC, Cat #2001073; Sartorius, Göttingen, Germany). Human, huIL1RAP-His (Sino Biological, lot: MB08MA1301), and monkey, cyIL1RAP-His (Lake Pharma, NY, USA; lot:16205819371) proteins were titrated starting from the highest concentration of 100 nM and followed by 50 nM and 25 nM. Purified antibodies were loaded at 5 μg/ml in kinetics buffer. The experimental parameters selected to determine the kinetic constants were Baseline for 60 s, Loading of antibody to sensor for 180 s, Association of analyte to antibody for 120 s, Dissociation for 1200 s and Regeneration in 10 mM Glycine pH 1.7 for 4×30 s.
(§2) Regeneration cycle tracking was selected for 12 cycles. Binding to human and cynomolgus IL1RAP was measured and KD (M) kinetics were calculated. Also, the disassociation rate (Kdis) (1/s) and association rate (Kon) (1/Ms) kinetics were calculated (data not shown).

[2] = target: T2, cyIL1RAP-His (Lake Pharma); experiment: Octet BLI; mAb captured on anti-mouse IgG Fc sensor; cyIL1RAP-His analyte
Description: as §1, §2

[3] = target: T3, IL1RAP on HEK-Blue IL1β / HEK-Blue IL33 …; experiment: cell-based or functional assay
[4] = target: T3, IL1RAP on HEK-Blue IL1β / HEK-Blue IL33 …; experiment: cell-based or functional assay; remark: listed apart in the source
[5] = target: T4, recombinant mouse IL1RAP protein (Sino …); experiment: cell-free ELISA, mouse IL1RAP coated; data not shown
Description: Recombinant human or mouse IL1RAP proteins (Sino Biological, Beijing, China; Cat #10121-H08H and Sino Biological, Cat #52657-M08H respectively) were diluted in PBS, pH 7.4 at concentration of 1 μg/ml, coated on high-binding 384-well clear plates and incubated overnight at 4° C. Following, plates were washed 3× with 0.05% Tween-20 in PBS, pH 7.5 and then blocked with 1% BSA in PBS for 1 hour at room temperature. After 3× washes, wells were incubated with each antibody at the highest concentration of 100 nM followed by seven serial half log dilutions (in 1% BSA and 0.05% Tween-20 in PBS) for 1 hour at room temperature. Plates were then washed 3× and incubated with […] detection antibody (Medna, TX, USA; Cat #D8212, 0.5 μg/ml diluted in 0.02% Tween-20 in PBS). After 5× washes, Supersignal ELISA Pico substrate (Thermofisher, MA, USA; Cat #37069) was applied to wells and chemiluminescent signal was read on Sprectramax L for 200 ms/well. Similarly, detection with specific κ and λ antibodies was conducted to define light chain isotyping.

Binder	Kd [1] [nM]	Response [1]	koff [1] [s⁻¹]	kon [1] [M⁻¹ s⁻¹]	Kd [2] [nM]	Response [2]	koff [2] [s⁻¹]	kon [2] [M⁻¹ s⁻¹]	IC50, HEK-BlueIL1β NFκB Reporter Assay [3]	Max % Inhibition at 200 nM, HEK-BlueIL1β NFκB Reporter Assay [3] [%]	IC50, HEK-BlueIL33 NFκB Reporter Assay [4]	Max % Inhibition at 200 nM, HEK-BlueIL33 NFκB Reporter Assay [4] [%]	binding result [5]
STLX2009 (antibody, V domains shown, Purified from hybridoma of immunized Alivamab mice; intact IgG; captured on anti-mouse IgG Fc sensors in Octet; kappa light chain; also called 74804_09H05A) VH: QVQLFQSGAEVKKPGASVKVSCKASGYTFTGYYVHWVRQAPGQGLEWMGWINPNSGGTDYAQKFQGRVTMTWDTSISTAYMELSRLRSDDTAVYYCARSYYYYGMDVWGQGTTVTVSS VL: not shown	1.64	0.205	0.000272	166000	2.87	0.219	0.000408	142000	2e-09 M (implied; unit not printed)	99	1.1e-08 M (implied; unit not printed)	74	no binding (tested: 100 nM)
STLX2017 (antibody, V domains shown, Purified from hybridoma of immunized Alivamab mice; intact IgG; captured on anti-mouse IgG Fc sensors in Octet; kappa light chain; also called 74804_17E20A) VH: EVQLVQSGAEVKKPGESLKISCKGSGYSFTSYWIGWVRQMPGKGLEWMGIIWPGDSDTRYSPSFQGQVTISADKSVNTAYLQWISLKASDTAIYYCARSSGGTAMDVWGQGTTVTVSS VL: not shown	0.83	0.17	0.000348	420000	0.739	0.192	0.000259	351000	8.19e-10 M (implied; unit not printed)	101	4.82e-09 M (implied; unit not printed)	80	no binding (tested: 100 nM)
STLX2018 (antibody, V domains shown, Purified from hybridoma of immunized Alivamab mice; intact IgG; captured on anti-mouse IgG Fc sensors in Octet; kappa light chain; also called 74804_18L05A) VH: QVQLVQSGAEVKKPGASVKVSCKTSGYTFTSCCMHWVRQAPGQGLEWMGIINPSVGSTSYAQKFQGIVTMTRDTSTSTVYMELSSLRSEDTAVYYCAVDSSGSRYYYGMDVWGQGTTVTVSS VL: EIVMTQSPATLSVSPGERATLSCRASQSVRSNLAWYQQRPGQAPRLLIYGTSTRATGIPARFSGSGSGTEFTLTISSLQSEDFAVYYCQQYNYWPYTFGQGTKLEIK	1.62	0.17	0.00037	228000	4.32	0.168	0.000954	221000	1.73e-09 M (implied; unit not printed)	99	4.81e-09 M (implied; unit not printed)	93	no binding (tested: 100 nM)
